Experiment: yeast display, Sf9 membrane polyspecificity reagent, FACS + sequencing; frameworks hold sequencing errors
Procedure, shortened: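 Galactose induction of a Saccharomyces cerevisiae BJ5465 synthetic nanobody display library ran 36–48 hours. The cells were then stained for 1 hour at 4 °C with 10% biotinylated, detergent-solubilized Sf9 membrane reagent, pulled down on streptavidin microbeads and FACS-sorted into low and high (top ~1%) gates on expression and reagent-binding fluorescence. Labels for polyreactivity follow the gate of origin.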

Row | Sequence | polyreactivity (PSR sort gate)
1 | QVQLVESGGGLVQAGGSLRLSCAASGSTFAGYAMGWYRQEPGKERELVAAISGSGGTTYYADSVKGRFTISRDNAKNTVYLQMNSLKPEDNAVYYCAALRGRYYGGLGDYWGQGTQVTVSS | high polyreactivity
2 | QVQLVESGGGLVQAGGSLRLSCAASGRISGFNAMGWYRQAPGKDRELVAAISYRGGSTSADSVKGRFTISRDNAKNTVYLQMNSLKPEDTAVYYCAADVRFYQYSDYDYWGQGTQVTVSS | low polyreactivity
3 | QVQLVESGGGLVQAGGSLRLSCAASGRIFGDYAMGWYRQAPGKERELVAAISYSGGSTYYADSVKGRFTISRDNAKNTVYLQMNSLKPEDTAVYYCNKRWYTYGRYGVQGYDYWGQGTQVTVSS | high polyreactivity
4 | QVQLVESGGGLVQAGGSLRLSCAASGRTLNYYAMVCYRQAPGKERELVASIDWDTGITDYADSVKGRFTISRDNAKNTVYLQMNSLKPEDSAVYYCAAVRVTKKYSYAYWGQGTQVTVSS | low polyreactivity
5 | QVQLVESGGGLVQAGGSLRLSCAASGIIFYIYAMGWYRQAPGKETELVASISFSGTSTYYADSVKGRFTISRDNAKNTVYLQLHSLKPEDTAVYYCNAQTNRPWGWPIGYDYWGQGTQVTVSS | low polyreactivity
6 | QVQLVESGGGLVQAGGSLRLSCAASGSTFDNYALGWYRQAPGKERELVAAINWSGSSTYYADSVKGRFTISRDNAKNTVYLQMNSLKPEDTAVYYCNKTGVTPKTATDGDYWGQGTQVTVSS | low polyreactivity
7 | QVQLVESGGGLVQAGGSLRLSSAASGFIFRTYAMGRYRQAHGKESQLVAAISGTTGSKYYADSVKGRFTISRDNAKNTVYLQMNSLKPEDTAVYYCAADFYWYIRYDYWGQGTQVTVSS | low polyreactivity
8 | QVQLVESGGGLVQAGGSLRLTCAASGRILYSYAMGWYRQEPGKERELVAAISGSGGSTYYADSVKGRFTISRDNSKNTVYLQMNMLKPEDTAVYYCAARDLYRYRPQGLGSSQRYYYWGQGTQVTVSS | high polyreactivity
9 | QVQLVESGGGLVQAGGSLRLSCAASGYIFYWYDMGWYRQAPGKEREMVAVIPTSGGSTYYADSVKGRFTISRDNAKNTVYLQMNSLKPEDTAVEYCNADSLFEYWDYDYWGQGTQVTVSS | low polyreactivity
10 | QVQLVESGGGLVQAGGSLRLSCAASGFICYFYAMGWYRQAPGKERELVAVITQSGGSTYYADSVKGRFTISRDNAKNTVYLQMNSLKPEDTAVYYCNADTVRYYPFFSVRYYYWGQGTQVTVSS | low polyreactivity
11 | QVQLVESGGGLVQAGGSLRLSCASSGRTSLNYAMGWYRQAPGKDRELVAAITSGGGGTYYADSVKGRFTISRDNAKNTVYLQMYRLKPEVTALYYCGAKFPARRKLSKVGFDYWGQGTQVSVSS | high polyreactivity
12 | QVQLVESGGGLVQAGGSLRLSCAASGNIFGRYAMGWYRQAPGKERELVAAISWSGGSTFYADSVKGRFTISRDNAKNTVYLQMNSLKPEDTAVYYCAAEYWVYDSYWFDYDYWGQGTQVTVSS | high polyreactivity
13 | QVQLVESGGGLVQAGGSLRLSCAASGFTFYGYVMGWSRQAPGKERDLVAAITRGGNTYYADSVKGRITISRDNAKNTVYLQMNSLKPEDTAVYYCARDRSYWDKPRQRDGYWGQGTQVTVSS | low polyreactivity
14 | QVQLVESGGGLVQAGGSLRLSCAASGSTFFHYAMGWYRQAPGKERELVAAISTGGTTYYADSVKGRFTISRDNAKNTVYLQMNSLKPEDSAVYYCAAEAYGLSGLYYYWGQCTQVTVSS | high polyreactivity
15 | QVQLVESGGGLVQAGGSLRLSCAASGSIFYSYAMGWYRQAPGKERELVADITITGSTYYADSVKGRFTISRDNAKNTVYLQMNSLKPEDTAVYYCTAVLAPGGYDYWGQGTQVTVSS | low polyreactivity
16 | QVQLVESGGGLVQAGGSLRLSCAASGSILDSNAMGWYRQAPGKERELVAAITSGGSTYYADSVKGRFTISRDNAKNTVYLLMNSLKPEDTAVYYCAAAYLGYGAVQPSYEGGYWGQGTQVTVSS | low polyreactivity
17 | QVQLVESGGGLVQAGGSLRLSCAASGSIFVNNAMGWYRQAHGKERELVAAISGSGSSTHYAHSVKGRFTISRDNAKNTVYLQMNSLKPEDTAVYYCNRGRRDLDFNYWGQGTQVTVSS | low polyreactivity
18 | QVQLVESGGGLVQAGGSLRLSCAASGRIFIGYAMGWYRQAPGKERELVAGISQRGGRTYYADSVKGRFTISRDNAKNTVYLQMNSLKPEDTAVYYCNKRFSLGYRGGYWGQGTQVTVSS | high polyreactivity
19 | QVQLVESGGGLVQAGGSLRLSCAASGRIFVNNAMGWYRPAPGKERELVAAISKRGGSTYYADSLKGRFTISRDNAMNTVYLHMNSLKPEDTAVYYCAASGYRYPIDGDYWGQGTEVTVSS | high polyreactivity
20 | QVQLVESGGGLVQAGGSLRLSCAASGIIFYYYVMGCYRQAPGKERELVAAISRSGGRTRYADSVKGRFTISRDNAKNTVYLQMNSLKPEDTAVYYCAAVGSVNYDADFDYWGQGTQVTVSS | high polyreactivity
21 | QVQLVESGGGLVQAGGSLRLSCAASGSTFYTYTMGWYRQAPGKERELVAAISSSGGDTYYADSVKGRFTISRDNAKNTVYLQMNSLKPEDTAVYYCAALGAFPSLEFDYWGQGTQVTVSS | low polyreactivity
22 | QVQLVESGGGLVQAGGSLRLSCAASGSIFYVYVMGWYRPAPGKERELVAGITSGGSTYYADSVKGRFTISRDNAKNTVYFQMNSLKPEDTAVYFCAADLYYWGDYDYWGQGSQVTVSS | low polyreactivity

Row | Sequence | polyreactivity (PSR sort gate)
23 | QVHLVESGGGLVQAGRSLRLICAASGSTFPTYAMGWYRQAPGKETELVAAISTRGGSTYYADSVKGRFTISRDNAKNTVYLQMNSVKPEDTAVYYCATGKTVGRYHYEYWGQGTQVTVSS | low polyreactivity
24 | QVQLVESVGGLVQAGGSLRLSCAASGRTFGVYAMGWYRQAPGKERELVAAISRRAGNTYYADSVKGRFTISRDNAKNTVYLQMNSLKPEDTAVYYCAAYFSRQYGYWGLGTQVTVSS | high polyreactivity
25 | QVQLVESGGGLVQAGGSLRLSCAASGPISRYNTMGWYRQAPGKERELVAAISYRGGSTYYADSVKGRFTISRDNAKNTVYLQMNSLKPEDTAVYYCNKVRSSVRSGGYGYWGQGTQVTVSS | high polyreactivity
26 | QVQLVESGGGLVQAGGILRLSCAASGRTLSKNAMGWYRQAPGKERELVATISSVGRTNYADSVKGRFTISRDNEKITVYLQMISLKPEDTAVYYCSARRFRGSYYWGQGTQVTVSS | high polyreactivity
27 | HVQLVESGGGLVQAGGSLRLSCAASGITFYDNVMGWYRQAAGKERELVAAITDSGGSTYYADSVKGRFTISRDNEKNTDYLQMNSLNPEDTAVYYCNAEVNAHWWWYIEDYWGQGTQVTVSS | low polyreactivity
28 | QVQLVESGGGLVQAGGSLRLSCAASGFTFRYYAMGWYRQAPGKERELVAGISSRGGSTYYADSVKGRFTISRDNAKNTDYLQMNSLKTEDTAVYYCATERFLLGLGYDYWGQGTQVTVSS | high polyreactivity
29 | QVQLVESGGGLVQAGGSLRLSCAASGFTFNYYAMGWYRQAPGKERELVAAISGRGGSTYYADSVKGRFTISRDNAKNTVYLQMNSLKPEDTAVYYCAADYWYDYYSTEYDYWGQGTQVTVSS | low polyreactivity
30 | QVQLVESGGGLVQAGGSLRLSCAPSGIIFYYYAMGWYRQAPGKERELVAAITGTGSRTYYADSVKGRFTISRDNAKNTVYLQMNSLKPEDTAVYYCNARSFATGSKVPARGYWGQGTQVTVSS | high polyreactivity
31 | QVHLVESGGGLVQAGGSLRLSCAASGSIFYRNAMGWYRPAPGKERELVAAISSDGSTNYADSVKGRFTISRDNEKNTVYLQMNSLKPEDTAVYYCAAPWTQILDYWGQGNQVTVSS | low polyreactivity
32 | QVQLVESGGGLVQAGGSLRLSCAASGRIFASNAMGWYRPAPGKERELVAAITTTGGSTYYADSVKGRFTISRDNAKNTVYLQMNSLKPEDTAVYYCAKRLGYRYPTYDYWGQGTQVTVSS | high polyreactivity
33 | QVQLVESGGGLVQAGGSLRLSCAASGFSFHRYAMGWYRQAPGKERELVAGITRRSGSTFYADSVKGRFTISRDNAKNTVYLQMNRLKPEDSAVYYCAATVPGLHWIYDYWGQGTQVTVSS | high polyreactivity
34 | QVQLVESAGGLVQAGGSLRLSCAASGLTFVRYGMGWYRQAPGKERELVAAITSDDSTYYADSVKGSFTISRDNAQNTVYLQMNSLNPEDTAVYYCAARYTLYDTGESSRTYTGFIYWGLGTQVTVSS | low polyreactivity
35 | QVQLVESCGGLVQAGGSLRLSCAASGITFFGYDMGWYRQAPWKEWELVAAITSTGRTYYADSVKGRFTISRDNAKKTDYLQMNSLTPEDTAVYYCNAARYPRSWYYKLDYWGQGTQVTVSS | high polyreactivity
36 | QVQLVESGAGLVQAGGSLRLSCAASGSTLVTNAMGWYRQAPGKERELVAAITFSGGTTYYADSVKGRFTISRDNAKNTVYLQMNSLKPEDTAVYYCAAEIWLEYVGYDYWGQGTQVTVSS | high polyreactivity
37 | QVQLVDSGGGIVQAGGSLRLSCAASGRIFKLYAMGRYRQAPGKERELVAAISKSGGNTYADSVKGRFTISRDNAKNSVYLQMNSLKPEDTAVYYCAATVQSTSDPFDYWGQGTQVTVSS | low polyreactivity
38 | QVQLVESGGGIVQAGGSLRLSCAASYYDMGWYRQAPGKERELVASISSGGSTNYADSVKGRFTISRDNAKNTVYLQMNSLKPEDTAVYYCAADVADGVWVKIADEYWGQGTQVTVSS | low polyreactivity
39 | QVQLVESGGGLVQAGGSLRLSCAASGSTFAPNAMGWYRQAPGKERELVAGISWGDSTYYADSVKGRFTISRDNAKNTVYLQMNSLKPEDTAVYYCNVDDPFYSGVVEFDYWGQGTQVTVSS | low polyreactivity
40 | QVQLVESGGGLVQAGGSLRLSCAASGSTFVKNAMGWYRQAPGKERELVAAISGRGGSTYYADSVKGRFTISRDNAKNTVYLQMNSLKPEDTAVYYCNKAYSVAYTYNYWGQGTQVTVSS | high polyreactivity
41 | QVQLVESGGGLVQAGGSLRLSCAASGLIRYTYAMGWYRQAPGKERELVAAINSGGRTYYADSVKGRFTISRDNAKNTVYLQMNSLKPEYTAVYSCAADYGSRVRGFNYWGQGTQVTVSS | low polyreactivity
42 | QVQLVESWGGLVQAGGSLRLSCAASGYTFSAYAMGWYRQAPGKERELVAAISWSGASTSYADSVKGRFTISRDNAKNTVYLQMNSLKPEDTAVYYCAARRLHYQFKYYSWGQGTQVTVSS | high polyreactivity
43 | QVQLVESGGGLDQAGGSLRLSCAASGRIFLPNAMGWYRQAPGKEMEFVASISWSGGSTYYADSVKGRFTISRDYAKNTVYLQMNSLKPEDTAVYYCNARFGKRYYYWGQGTQVTVSS | low polyreactivity
